Test results taken from publication doi:10.1101/2023.12.24.573241.

Key:
[1] = biological target: DmUNC-104^bris (full-length DmUNC-104 R562H, C-terminal sfGFP and 2xStrep-tag II) (Drosophila melanogaster) (UniProt A1ZAJ2); experiment: mass photometry
[2] = biological target: Taxol-stabilized microtubules polymerized from pig brain tubulin, labeled with biotin and AZDye647 (pig) (UniProt P02550); experiment: TIRF single-molecule motility assay
UniProt P02550, sequence (P02550 whole entry): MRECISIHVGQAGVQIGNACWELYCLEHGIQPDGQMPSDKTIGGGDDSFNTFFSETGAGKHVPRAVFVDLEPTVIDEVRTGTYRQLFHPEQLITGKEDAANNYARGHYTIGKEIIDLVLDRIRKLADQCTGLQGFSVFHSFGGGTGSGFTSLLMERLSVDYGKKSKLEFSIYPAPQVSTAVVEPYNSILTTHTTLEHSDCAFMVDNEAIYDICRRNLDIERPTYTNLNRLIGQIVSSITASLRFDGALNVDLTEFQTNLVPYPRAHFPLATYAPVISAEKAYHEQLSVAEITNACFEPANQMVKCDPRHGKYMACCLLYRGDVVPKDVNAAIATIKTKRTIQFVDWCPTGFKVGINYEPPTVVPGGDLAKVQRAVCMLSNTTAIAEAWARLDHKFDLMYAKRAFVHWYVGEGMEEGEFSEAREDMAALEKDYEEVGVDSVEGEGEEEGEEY

A percent of particles as dimer [1] of 71%, a stoichiometry N [1] of 2 and a landing rate (median) (molecules/µm/s) [2] of 0.034 were found for “DmUNC-104^bris (full-length DmUNC-104 R562H, C-terminal sfGFP and 2xStrep-tag II) (from UniProt A1ZAJ2 1-1670) (natural protein)” in this work. It also gave a landing rate of motile motors (median) (molecules/µm/s) [2] of 0.015.
